Key:
[1] = target: T1, human IL-33 (R&D Systems, #3625-IL-010/CF) (human) (UniProt O95760); experiment: SPR Biacore T200, 25 C
T1 sequence (looked up): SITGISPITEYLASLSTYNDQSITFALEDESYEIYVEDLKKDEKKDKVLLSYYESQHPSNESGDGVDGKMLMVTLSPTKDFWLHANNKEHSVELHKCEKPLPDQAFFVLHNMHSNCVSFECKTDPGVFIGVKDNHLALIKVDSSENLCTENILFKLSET

[2] = target: T1, human IL-33 (R&D Systems, #3625-IL-010/CF) (human)
[3] = target: T1, human IL-33 (R&D Systems, #3625-IL-010/CF) (human); remark: listed apart in the source
[4] = target: T1, human IL-33 (R&D Systems, #3625-IL-010/CF) (human); remark: listed apart in the source
[5] = target: T1, human IL-33 (R&D Systems, #3625-IL-010/CF) (human); experiment: SPR Biacore T200, 37 C
[6] = target: T2, biotinylated human IL-33 (human) (UniProt O95760); experiment: competitive ELISA, biotin-huIL-33 to coated hST2-Fc
T2 sequence (biotin-labeled with EZ-LINK NHS-PEG4-Biotin, looked up): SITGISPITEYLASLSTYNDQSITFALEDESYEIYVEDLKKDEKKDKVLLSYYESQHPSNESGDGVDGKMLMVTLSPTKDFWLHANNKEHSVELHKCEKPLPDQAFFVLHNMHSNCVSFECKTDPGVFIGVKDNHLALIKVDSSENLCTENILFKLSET

[7] = target: T1, human IL-33 (R&D Systems, #3625-IL-010/CF) (human); experiment: cell-based or functional assay
[8] = target: T1, human IL-33 (R&D Systems, #3625-IL-010/CF) (human); remark: listed apart in the source
[9] = target: T1, human IL-33 (R&D Systems, #3625-IL-010/CF) (human); remark: listed apart in the source
[10] = target: T1, human IL-33 (R&D Systems, #3625-IL-010/CF) (human); remark: listed apart in the source

B1: H4H9675P (antibody, from another filing, IgG4, V domains shown)
VH: EVQLVESGGNLEQPGGSLRLSCTASGFTFSRSAMNWVRRAPGKGLEWVSGISGSGGRTYYADSVKGRFTISRDNSKNTLYLQMNSLSAEDTAAYYCAKDSYTTSWYGGMDVWGHGTTVTVSS
VL: DIQMTQSPSSVSASVGDRVTITCRASQGIFSWLAWYQQKPGKAPKLLIYAASSLQSGVPSRFSGSGSGTDFTLTISSLQPEDFAIYYCQQANSVPITFGQGTRLEIK
- Kd [1]: 0.391 nM
- koff [1]: 0.000637 s⁻¹
- kon [1]: 1.63e+06 M⁻¹ s⁻¹
- t1/2 [1]: 18 min
- Ph-p38 MFI at 0.4 nM Ab (500 pM human IL-33, primary basophils) [2]: 48 MFI
- IC50, IL-33-induced phospho-p38 in primary human basophils, 500 pM hIL-33 [3]: 3.5e-13 M
- Ph-p38 MFI at 2 nM Ab (500 pM human IL-33, primary basophils) [4]: 30 MFI
- Kd [5]: 0.192 nM
- koff [5]: 0.000779 s⁻¹
- kon [5]: 4.06e+06 M⁻¹ s⁻¹
- t1/2 [5]: 15 min
- IC50 [6]: 0.063 nM
- Maximum Blocking [6]: 84%
- HEK-BLUE SEAP reporter IC50 [7]: 0.011 nM
- IFN-γ secretion from primary NK cells, IC50 [7]: 0.097 nM
- phospho-p38 in primary basophils, IC50 [7]: 0.00038 nM

B2: H4H9664P (antibody, from another filing, IgG4, V domains shown)
VH: QVQLVESGGGVVQPGRSLRLSCAASGFTFSSYGLHWVRQSPGKGLEWVALISYDGSNKYYADSVKGRFTISRDNSKNTLYLQMNSLRPEDTAGYFCAKSLYTTSWYGGFDYWGQGTLVTVSS
VL: DIQMTQSPSSVSASVGDRVTITCRASQGIRSWLAWYQQKPGKAPNLLIYAASSLQSGVPSRFSGSGSGTDFTLTISSLQPEDFATYYCQQANSFPPTFGPGTKVDIK
- Kd [1]: 1.31 nM
- koff [1]: 0.000445 s⁻¹
- kon [1]: 339000 M⁻¹ s⁻¹
- t1/2 [1]: 26 min
- Ph-p38 MFI at 0.4 nM Ab (500 pM human IL-33, primary basophils) [2]: 63 MFI
- Ph-p38 MFI at 2 nM Ab (500 pM human IL-33, primary basophils) [4]: 40 MFI
- IC50; SEAP reporter (OD 620), HEK-BLUE IL-33/IL-1beta cells, 10 pM hIL-33 [8]: 1.5e-10 M
- Kd [5]: 0.674 nM
- koff [5]: 0.000531 s⁻¹
- kon [5]: 789000 M⁻¹ s⁻¹
- t1/2 [5]: 22 min
- IC50 [6]: 0.19 nM
- Maximum Blocking [6]: 87%
- phospho-p38 in primary basophils, IC50 [7]: 0.00014 nM

B3: H4H9662P (antibody, from another filing, IgG4, V domains shown)
VH: EVQLVESGGGLVQPGGSLRLSCAASGFTFSSYALTWVRQAPGKGLEWVSFISGSGGRPFYADSVKGRFTISRDNSKNMLYLQMNSLRAEDTAIYYCAKSLYTTSWYGGFDSWGQGTLVTVSS
VL: DIQMTQSPSSVSASVGDRVTITCRASQGVVSWLAWYQQKPGKAPKLLIYAASSLQSGVPSRFSGSGSGTDFTLTISSLQPEDFATYYCQQSNSFPFTLGPGTKVDIK
- Kd [1]: 0.527 nM
- koff [1]: 0.000459 s⁻¹
- kon [1]: 871000 M⁻¹ s⁻¹
- t1/2 [1]: 25 min
- Ph-p38 MFI at 0.4 nM Ab (500 pM human IL-33, primary basophils) [2]: 86 MFI
- IC50, IL-33-induced phospho-p38 in primary human basophils, 500 pM hIL-33 [3]: 2.5e-09 M
- Ph-p38 MFI at 2 nM Ab (500 pM human IL-33, primary basophils) [4]: 44 MFI
- IC50; SEAP reporter (OD 620), HEK-BLUE IL-33/IL-1beta cells, 10 pM hIL-33 [8]: 1.5e-10 M
- Kd [5]: 0.242 nM
- koff [5]: 0.000566 s⁻¹
- kon [5]: 2.34e+06 M⁻¹ s⁻¹
- t1/2 [5]: 20 min
- IC50 [6]: 0.25 nM
- Maximum Blocking [6]: 85%
- IC50; IFN-gamma ELISA, primary human NK cells, 260 pM hIL-33 + IL-12 [9]: 1.2e-09 M

B4: H4H9663P (antibody, from another filing, IgG4, V domains shown)
VH: QVQLVQSGAEVKKPGASVKVSCKASGYTFTGHYMYWMRQAPGQGLEWMGWINPNSGGTNYAQKFQDRVTMTRDTSISTAYMELSRLRSDDTAVYYCARGRYGSSWYGGFEYWGQGTLVTVSS
VL: DIQMTQSPSSVSASVGDRVTITCRASQGITSWLAWYQQKPGKAPNLLIYAAASLQSGVPSRFSGSGSGTDFTLTISSLQPEDFTTYYCQQAYSLPLTFGGGTKVEIK
- Kd [1]: 0.558 nM
- koff [1]: 0.000937 s⁻¹
- kon [1]: 1.68e+06 M⁻¹ s⁻¹
- t1/2 [1]: 12 min
- Ph-p38 MFI at 0.4 nM Ab (500 pM human IL-33, primary basophils) [2]: 123 MFI
- Ph-p38 MFI at 2 nM Ab (500 pM human IL-33, primary basophils) [4]: 80 MFI
- IC50; SEAP reporter (OD 620), HEK-BLUE IL-33/IL-1beta cells, 10 pM hIL-33 [8]: 1.5e-09 M
- Kd [5]: 0.517 nM
- koff [5]: 0.00161 s⁻¹
- kon [5]: 3.11e+06 M⁻¹ s⁻¹
- t1/2 [5]: 7 min
- IC50 [6]: 0.44 nM
- Maximum Blocking [6]: 82%
- IC50; IFN-gamma ELISA, primary human NK cells, 260 pM hIL-33 + IL-12 [9]: 4.6e-09 M

B5: H4H9665P (antibody, from another filing, IgG4, V domains shown)
VH: EVQLVESGGGLVQPGGSLRLSCAASGFTFSNYAMTWVRQAPGKGLEWVSTISGSGDNTYYADSVQGRFTISRGHSKNTLYLQMNSLRAEDTAVYYCAKPTYSRSWYGAFDFWGQGTMVTVSS
VL: DIQMTQSPSSVSASVGDRVTITCRASQGISSWLAWYQQKPGKAPQLLIYAASRLQSGVPSRFWGSGSGTDFTLTISSLQPEDFATYYCQQANNFPFTFGPGTKVDIK
- Kd [1]: 1.25 nM
- koff [1]: 0.00116 s⁻¹
- kon [1]: 931000 M⁻¹ s⁻¹
- t1/2 [1]: 10 min
- Ph-p38 MFI at 0.4 nM Ab (500 pM human IL-33, primary basophils) [2]: 106 MFI
- IC50, IL-33-induced phospho-p38 in primary human basophils, 500 pM hIL-33 [3]: 2.4e-09 M
- Ph-p38 MFI at 2 nM Ab (500 pM human IL-33, primary basophils) [4]: 105 MFI
- IC50; SEAP reporter (OD 620), HEK-BLUE IL-33/IL-1beta cells, 10 pM hIL-33 [8]: 1.1e-09 M
- Kd [5]: 1 nM
- koff [5]: 0.00235 s⁻¹
- kon [5]: 2.35e+06 M⁻¹ s⁻¹
- t1/2 [5]: 5 min
- IC50 [6]: 0.7 nM
- Maximum Blocking [6]: 63%

B6: H4H9666P (antibody, from another filing, IgG4, V domains shown)
VH: QVQLVQSGAEVKKPGASVKVSCKASGYTFTSYGISWVRQAPGQGLEWMGWIRAYNGYTNYAQKFQGRVTMTTDTSTNTAYMELRTLNSDDTAVYYCARDRYSGSFHGNFDYWGQGTLVTVSS
VL: DIQMTQSPSSVSASVGDRVTITCRASQGIFSWLAWYQQKPGKAPKVLIYAASNLESGVPSRFSGSGSGTDFTLTISSLQPEDFATYYCQQANSLPLTFGGGTKVEIK
- Kd [1]: 1.74 nM
- koff [1]: 0.00115 s⁻¹
- kon [1]: 665000 M⁻¹ s⁻¹
- t1/2 [1]: 10 min
- Ph-p38 MFI at 0.4 nM Ab (500 pM human IL-33, primary basophils) [2]: 90 MFI
- IC50, IL-33-induced phospho-p38 in primary human basophils, 500 pM hIL-33 [3]: 7.6e-06 M
- Ph-p38 MFI at 2 nM Ab (500 pM human IL-33, primary basophils) [4]: 71 MFI
- IC50; SEAP reporter (OD 620), HEK-BLUE IL-33/IL-1beta cells, 10 pM hIL-33 [8]: 7.1e-10 M
- Kd [5]: 0.934 nM
- koff [5]: 0.00158 s⁻¹
- kon [5]: 1.69e+06 M⁻¹ s⁻¹
- t1/2 [5]: 7 min
- IC50 [6]: 0.21 nM
- Maximum Blocking [6]: 81%
- IC50; IFN-gamma ELISA, primary human NK cells, 260 pM hIL-33 + IL-12 [9]: 1e-08 M

B7: H4H9670P (antibody, from another filing, IgG4, V domains shown)
VH: EVQLVESGGGLVQPGGSLRLSCAASGFTLSSYAMSWVRQAPGKGLEWVSAISGSGGSTYYADSVKGRFTISRDNSKNSLYLQLNSLRAEDTAVYYCAKTLYTTSWYGGFQHWGQGTLVTVSS
VL: DIQMTQSPSSVSASIGDRVTITCRASQGISSWLAWYQQKPGKVPKLLIYAASSLQSGFPSRFSGSGSGTDFTLTISSLQPEDFATYYCQQTHSFPWTVGQGTKVEIK
- Kd [1]: 0.761 nM
- koff [1]: 0.000517 s⁻¹
- kon [1]: 680000 M⁻¹ s⁻¹
- t1/2 [1]: 22 min
- Ph-p38 MFI at 0.4 nM Ab (500 pM human IL-33, primary basophils) [2]: 118 MFI
- Ph-p38 MFI at 2 nM Ab (500 pM human IL-33, primary basophils) [4]: 90 MFI
- IC50; SEAP reporter (OD 620), HEK-BLUE IL-33/IL-1beta cells, 10 pM hIL-33 [8]: 2.6e-09 M
- Kd [5]: 0.519 nM
- koff [5]: 0.000663 s⁻¹
- kon [5]: 1.28e+06 M⁻¹ s⁻¹
- t1/2 [5]: 17 min
- IC50 [6]: 0.42 nM
- Maximum Blocking [6]: 80%

B8: H4H9671P (antibody, from another filing, IgG4, V domains shown)
VH: EVQLVESGGGLVQPGGSLRLSCAASGFTLRSYFMTWVRQVPGKGLEGVSAISGISGGTYYTDSVKGRFTISRDNSKNTLFLQMNSLRAEDTAVYFCARTVYSSSYYGGFQHWGQGTLVTVSS
VL: DIQMTQSPSSVSVSVGDRVTITCRASQGISSWLAWYQQKPGKAPKLLIYVASSLQSGVPSRFSGSGSGTDFTLTISSLQPEDFATYYCQQTNSFPLTFGGGTKVEIK
- Kd [1]: 0.736 nM
- koff [1]: 0.000963 s⁻¹
- kon [1]: 1.31e+06 M⁻¹ s⁻¹
- t1/2 [1]: 12 min
- Ph-p38 MFI at 0.4 nM Ab (500 pM human IL-33, primary basophils) [2]: 122 MFI
- IC50 (read off the curve) [10]: 0.002 nM
- IC50, IL-33-induced phospho-p38 in primary human basophils, 500 pM hIL-33 [3]: 2.3e-12 M
- Ph-p38 MFI at 2 nM Ab (500 pM human IL-33, primary basophils) [4]: 83 MFI
- IC50; SEAP reporter (OD 620), HEK-BLUE IL-33/IL-1beta cells, 10 pM hIL-33 [8]: 5.7e-10 M
- Kd [5]: 0.552 nM
- koff [5]: 0.00203 s⁻¹
- kon [5]: 3.68e+06 M⁻¹ s⁻¹
- t1/2 [5]: 6 min
- IC50 [6]: 0.096 nM
- Maximum Blocking [6]: 77%

Source: US20190092852A1
